Experimental data as given in article doi:10.1101/2023.06.13.544862.

These substances were tested against EED labelled for microscale thermophoresis (human) (UniProt O75530) (assay: MST).
Sequence of EED labelled for microscale thermophoresis (human) (O75530 whole entry): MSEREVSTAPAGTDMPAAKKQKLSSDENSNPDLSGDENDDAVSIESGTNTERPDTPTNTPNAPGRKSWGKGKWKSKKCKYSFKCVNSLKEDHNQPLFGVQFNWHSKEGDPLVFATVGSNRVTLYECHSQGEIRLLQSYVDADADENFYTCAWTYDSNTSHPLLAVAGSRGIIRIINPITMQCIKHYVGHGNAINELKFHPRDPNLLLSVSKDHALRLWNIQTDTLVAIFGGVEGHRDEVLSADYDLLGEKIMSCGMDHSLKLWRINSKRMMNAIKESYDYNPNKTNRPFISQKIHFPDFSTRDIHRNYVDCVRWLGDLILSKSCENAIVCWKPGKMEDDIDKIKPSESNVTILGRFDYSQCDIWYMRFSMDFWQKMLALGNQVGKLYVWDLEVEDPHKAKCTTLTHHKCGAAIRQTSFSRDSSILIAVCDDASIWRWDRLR

Row | Substance | Kd [µM]
1 | NOP16 aa 25-32 peptide, unmethylated K29 (from UniProt Q9Y3C1 25-32) | 11.6
2 | NOP16 aa 25-32 peptide, mono-methylated K29 (from UniProt Q9Y3C1 25-32) | 100
3 | NOP16 aa 25-32 peptide, di-methylated K29 (from UniProt Q9Y3C1 25-32) | 131

Stronger by Kd, values ahead:

Row | Kd [µM] | Substance
4 | 0.95 | H3K27me3 peptide
5 | 1.21 | NOP16 aa 25-32 peptide, tri-methylated K29 (from UniProt Q9Y3C1 25-32)

What follows are substances tested against JMJD3 JmjC domain labelled for microscale thermophoresis (UniProt O15054) (assay: MST).
Sequence of JMJD3 JmjC domain labelled for microscale thermophoresis (O15054 1339-1502): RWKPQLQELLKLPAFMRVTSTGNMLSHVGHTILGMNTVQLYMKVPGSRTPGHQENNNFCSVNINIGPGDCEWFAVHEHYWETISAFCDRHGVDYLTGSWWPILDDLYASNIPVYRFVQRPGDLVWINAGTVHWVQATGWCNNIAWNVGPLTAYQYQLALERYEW

Row | Kd [µM] | Substance
6 | 8.59 | H3K27me3 peptide
